Measurements: US20230398116A1, “Agent for reversing resistance to anticancer drugs” (Y'S AC CO., LTD., priority 2020, published 2023)

B1: mouse anti-human IL-26 monoclonal antibody clone 69-10 (antibody, V domains shown)
VH: QVTLKESGPGILKPSQTLSLTCSFSGFSLSTSGMGVGWIRQPSGKGLEWLAHIWWDDDKYYNPSLKSQLTISKDTSRNQVFLKITSVDTADTATYYCVRGGITATHYYAMDYWGQGTSVTVSS
VL: DIQMTQSPASQSASLGESVTISCLASQTIGTWLSWYQQKPGKSPQLLIYAATSLADGVPSRFSGSGSGTKFSFKISSLQAEDFVSYYCQQLYSSPWTFGGGTKLEIK
notes: Mouse antibody from a hybridoma; also called mouse 69-10; m69-10
B2: Recombinant human IL-26 dimer (R&D Systems) (ligand, UniProt Q9NPH9 22-171, looked up)
chain: KHKQSSFTKSCYPRGTLSQAVDALYIKAAWLKATIPEDRIKNIRLLKKKTKKQFMKNCQFQEQLLSFFMEDVFGQLQLQGCKKIRFVEDFHSLRQKLSHCISCASSAREMKSITRMKRIFYRIGNKGIYKAISELDILLSWIKKLLESSQ
notes: Bought from R&D Systems and used for cell stimulation; For the immunofluorescence experiments it was labeled with Alexa Fluor 488 (rhIL-26-Alexa 488); also called exogenous IL-26; rhIL-26-Alexa 488

How the values were obtained:
[1] = molecular target: T1, recombinant human IL-26/AK155 monomer, Cat #1375-IL/CF, R&D Systems (human, UniProt Q9NPH9 22-171); experiment: ELISA, human IL-26 monomer coated at 0.5 µg/ml, antibody diluted 2-fold from 5 µg/ml, HRP anti-mouse kappa detection
T1 construct: also called recombinant human IL-26 monomer
T1 sequence (looked up): B2 chain
Experimental: The antigen binding of purified Ch69-10-IgG1, Hu69-10A-IgG1, and Hu69-10B-IgG1 was analyzed by ELISA. ELISA plates were coated overnight at 4° C. with the addition of 0.5 μg/ml human IL-26 (recombinant human IL-26/AK155 monomer, Cat #1375-IL/CF, R&D Systems, Minneapolis, MN) at 100 μl/well in 0.2 M sodium carbonate buffer (pH 9.4). Wells were washed with the wash buffer and blocked with the ELISA buffer. Subsequently, 100 μl/well of test antibody (mouse 69-10, Ch69-10-IgG1, Hu69-10A-IgG1, or Hu69-10B-IgG1) serially diluted 2-fold in RPMI medium starting at 5 μg/ml was added to measure a binding with IL-26. After incubation at room temperature for 1 hour and washing the plates with a wash buffer, a 1/2,000-diluted HRP-conjugated goat anti-human kappa chain polyclonal antibody (Bethyl Laboratories) (for Ch69-10-IgG1, Hu69-10A-IgG1 and Hu69-10B-IgG1) or a 1/2,000-diluted HRP-labeled goat anti-mouse kappa chain polyclonal antibody (Bethyl Laboratories) (for mouse 69-10) in ELISA buffer was added at 100 μl/well to detect bound antibodies. After incubation at room temperature for 30 min and washing with the wash buffer, 100 μl/well of ABTS substrate (Sigma Aldrich) was added to start color development and 100 μl/well of 2% oxalic acid was added to stop the color development. The absorbance was measured at 405 nm.

[2] = molecular target: T2, human EphA3 on the surface of HCC70 cells (human, UniProt P29320 21-983); experiment: immunofluorescence colocalization on HCC70 cells (FIG. 21)
T2 construct: whole, on cells; Endogenous receptor on HCC70 cells; also called cell surface EphA3; EphA3 receptor
T2 sequence (looked up): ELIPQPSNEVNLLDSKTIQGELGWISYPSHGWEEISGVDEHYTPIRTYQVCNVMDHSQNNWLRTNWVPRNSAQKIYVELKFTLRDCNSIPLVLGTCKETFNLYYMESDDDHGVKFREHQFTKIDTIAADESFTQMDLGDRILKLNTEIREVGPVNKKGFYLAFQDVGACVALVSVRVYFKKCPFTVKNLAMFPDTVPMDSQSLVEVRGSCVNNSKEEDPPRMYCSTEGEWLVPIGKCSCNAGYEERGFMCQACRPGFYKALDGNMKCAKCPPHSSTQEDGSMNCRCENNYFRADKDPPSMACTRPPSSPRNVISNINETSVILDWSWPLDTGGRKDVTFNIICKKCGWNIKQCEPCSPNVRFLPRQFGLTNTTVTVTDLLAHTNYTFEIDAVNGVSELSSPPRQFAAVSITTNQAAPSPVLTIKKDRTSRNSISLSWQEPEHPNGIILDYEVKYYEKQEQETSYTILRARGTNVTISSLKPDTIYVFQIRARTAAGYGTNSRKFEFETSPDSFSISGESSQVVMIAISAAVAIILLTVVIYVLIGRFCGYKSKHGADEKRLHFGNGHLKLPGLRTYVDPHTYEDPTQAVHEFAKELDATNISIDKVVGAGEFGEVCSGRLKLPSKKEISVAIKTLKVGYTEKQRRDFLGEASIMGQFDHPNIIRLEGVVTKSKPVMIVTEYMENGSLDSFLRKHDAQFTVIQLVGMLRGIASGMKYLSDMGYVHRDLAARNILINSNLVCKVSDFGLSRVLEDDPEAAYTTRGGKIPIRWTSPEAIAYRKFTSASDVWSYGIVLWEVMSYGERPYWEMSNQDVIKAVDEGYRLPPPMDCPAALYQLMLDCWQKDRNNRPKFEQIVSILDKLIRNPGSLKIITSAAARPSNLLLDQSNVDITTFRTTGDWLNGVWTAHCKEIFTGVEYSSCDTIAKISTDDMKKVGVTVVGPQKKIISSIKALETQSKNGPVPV
Experimental: IL-26 merged with EphA3 on the cell surface. […] Original magnification 200×. Scale bar=20 μm. Representative images of three independent experiments with similar results are shown.
(§1) E0771 and HCC70 cells (1×10⁵) were cultured for 24 hours in RPMI1640 medium with 10% FCS on Lab-Tek chamber slides (Thermo Fisher Scientific). The cultured cells were stimulated with Alexa Fluor 488 labeled IL-26 (30 ng/ml) in the presence or absence of recombinant human and mouse EphA3-Ig for 1 hour. HCC70 cells were stimulated with IL-26 (30 ng/ml) in the presence or absence of gefitinib (40 μM), a signal inhibitor, and a neutralizing antibody for 24 hours. Subcutaneous tumor samples obtained from mice were fixed in 4% paraformaldehyde (Thermo Fisher Scientific) and embedded in OCT compound (Tissue-Tek (registered trademark), Sakura Finetek, Japan). Cells and slides were immunostained with each antibody and observed using a Zeiss inverted microscope and Axiovision 2.0 program (Carl Zeiss, Germany). The fluorescence intensity was quantified with Image-J software (NIH). The images were captured using a 100×400× objective.

[3] = molecular target: T3, mouse EphA3 on the surface of E0771 cells (mouse, UniProt P29319 21-983); experiment: 2.5D fluorescence intensity plot of stained E0771 cells (FIG. 18)
T3 construct: whole, on cells; Endogenous receptor on E0771 cells; also called cell surface EphA3; EphA3 receptor
T3 sequence (looked up): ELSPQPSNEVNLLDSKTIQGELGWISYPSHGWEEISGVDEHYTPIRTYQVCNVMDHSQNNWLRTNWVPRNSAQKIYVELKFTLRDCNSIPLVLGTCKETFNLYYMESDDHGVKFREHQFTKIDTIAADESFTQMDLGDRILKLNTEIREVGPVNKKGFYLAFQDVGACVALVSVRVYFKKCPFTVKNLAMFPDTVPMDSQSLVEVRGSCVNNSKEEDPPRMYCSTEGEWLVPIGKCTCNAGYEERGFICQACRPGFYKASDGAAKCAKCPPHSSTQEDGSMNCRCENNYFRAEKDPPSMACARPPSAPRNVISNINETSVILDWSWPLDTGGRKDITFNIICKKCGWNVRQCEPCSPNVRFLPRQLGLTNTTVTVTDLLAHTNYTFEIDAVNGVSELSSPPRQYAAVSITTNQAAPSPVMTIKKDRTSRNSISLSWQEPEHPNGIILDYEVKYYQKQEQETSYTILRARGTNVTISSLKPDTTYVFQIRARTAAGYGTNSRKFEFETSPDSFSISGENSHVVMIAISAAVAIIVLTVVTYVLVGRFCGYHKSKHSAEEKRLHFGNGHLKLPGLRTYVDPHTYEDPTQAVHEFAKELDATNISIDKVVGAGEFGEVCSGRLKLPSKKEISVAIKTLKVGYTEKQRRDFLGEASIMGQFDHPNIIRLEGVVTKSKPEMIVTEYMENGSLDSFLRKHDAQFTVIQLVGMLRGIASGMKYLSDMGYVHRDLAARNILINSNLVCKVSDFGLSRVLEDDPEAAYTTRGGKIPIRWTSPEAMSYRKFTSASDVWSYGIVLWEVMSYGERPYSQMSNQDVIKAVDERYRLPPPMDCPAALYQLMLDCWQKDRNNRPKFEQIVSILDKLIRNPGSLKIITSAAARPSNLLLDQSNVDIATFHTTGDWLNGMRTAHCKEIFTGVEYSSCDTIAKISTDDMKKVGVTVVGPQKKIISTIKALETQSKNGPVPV
Experimental: 2.5D intensity plot of EphA3, IL-26, and DAPI signals represents the absolute signal intensity of each pixel. Merged views and individual channels were shown. […] These images show EphA3/IL-26 interaction in E0771 cells. 200×. A representative image of five independent experiments showing similar results is shown.
as §1

Binder | EC50 [1] [µg/mL] | binding result [2] | binding result [3]
B1 | 0.34 | – | –
B2 | – | binds | binds
